The assay addresses T1, human NaX channel (human, UniProt Q01118 1-1682).
T1 construct: Full-length human NaX (sodium channel protein type 7 subunit alpha, gene SCN7A), cloned into a pRK vector behind a CMV promoter; Co-expressed and co-purified with untagged β3; No removal of the tags is described; also called SCN7A; source: Expi293 cells, co-transfected with β3, purified (anti-FLAG M2 agarose, Strep-Tactin XT, Superose 6); not shown: 2xStrepII, N-terminal, kept; 2xFLAG, …
The assay can be described thus: cryo-EM structure; β3-NaX complex co-expressed in Expi293, purified in GDN by the tags on NaX, reconstituted into POPC:POPE:POPG nanodiscs (MSP1E3D1); 25 mM HEPES pH 7.0, 200 mM NaCl; cross-linked with 0.05% glutaraldehyde before vitrification. Particulars: both partners purified.

T1 sequence (Q01118 whole entry): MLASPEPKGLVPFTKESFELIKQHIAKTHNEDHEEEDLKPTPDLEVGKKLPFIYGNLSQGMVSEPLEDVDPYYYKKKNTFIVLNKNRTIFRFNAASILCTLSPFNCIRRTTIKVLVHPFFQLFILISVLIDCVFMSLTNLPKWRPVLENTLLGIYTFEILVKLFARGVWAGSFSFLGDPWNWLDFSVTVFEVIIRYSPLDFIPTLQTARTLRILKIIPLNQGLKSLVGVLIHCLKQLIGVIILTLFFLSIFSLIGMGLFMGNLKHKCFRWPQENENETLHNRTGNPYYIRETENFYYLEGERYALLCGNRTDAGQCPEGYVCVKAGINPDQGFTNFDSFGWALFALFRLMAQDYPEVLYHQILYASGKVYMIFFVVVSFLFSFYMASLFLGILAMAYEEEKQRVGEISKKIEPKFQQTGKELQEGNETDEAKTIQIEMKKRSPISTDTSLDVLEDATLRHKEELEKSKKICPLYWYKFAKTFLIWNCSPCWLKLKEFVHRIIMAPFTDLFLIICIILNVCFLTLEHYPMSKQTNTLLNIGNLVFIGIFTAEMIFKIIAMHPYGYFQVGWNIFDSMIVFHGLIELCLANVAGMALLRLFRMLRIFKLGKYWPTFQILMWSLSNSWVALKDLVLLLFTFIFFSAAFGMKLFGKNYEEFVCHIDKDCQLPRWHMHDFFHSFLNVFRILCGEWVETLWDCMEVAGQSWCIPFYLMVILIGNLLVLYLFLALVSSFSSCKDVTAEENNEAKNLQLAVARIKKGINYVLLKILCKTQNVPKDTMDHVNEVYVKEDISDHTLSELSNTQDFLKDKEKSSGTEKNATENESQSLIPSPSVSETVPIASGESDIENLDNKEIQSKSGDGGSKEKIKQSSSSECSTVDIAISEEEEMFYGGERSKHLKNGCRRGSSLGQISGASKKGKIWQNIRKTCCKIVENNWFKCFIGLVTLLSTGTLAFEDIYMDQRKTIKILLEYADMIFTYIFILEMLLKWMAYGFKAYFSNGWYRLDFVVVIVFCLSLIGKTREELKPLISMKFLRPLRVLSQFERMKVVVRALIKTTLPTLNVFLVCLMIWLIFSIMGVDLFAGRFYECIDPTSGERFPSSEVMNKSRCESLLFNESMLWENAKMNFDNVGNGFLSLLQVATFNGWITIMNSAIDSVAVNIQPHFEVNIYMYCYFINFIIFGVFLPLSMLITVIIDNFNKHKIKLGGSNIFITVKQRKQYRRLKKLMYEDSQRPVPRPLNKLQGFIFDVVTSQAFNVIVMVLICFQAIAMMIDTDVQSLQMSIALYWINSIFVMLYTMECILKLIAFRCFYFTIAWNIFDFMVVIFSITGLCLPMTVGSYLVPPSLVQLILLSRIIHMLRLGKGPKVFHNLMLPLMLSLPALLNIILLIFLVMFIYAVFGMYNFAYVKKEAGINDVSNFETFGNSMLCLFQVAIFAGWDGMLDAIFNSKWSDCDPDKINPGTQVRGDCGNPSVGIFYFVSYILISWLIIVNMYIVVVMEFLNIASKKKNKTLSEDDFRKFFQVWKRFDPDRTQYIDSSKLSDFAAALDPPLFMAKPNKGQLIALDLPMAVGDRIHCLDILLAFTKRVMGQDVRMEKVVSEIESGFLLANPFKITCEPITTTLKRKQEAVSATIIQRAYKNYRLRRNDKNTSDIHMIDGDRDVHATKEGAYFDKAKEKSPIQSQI

B1: human β3-subunit (auxiliary NaV channel β3) (natural protein, UniProt Q9NY72 23-215, looked up)
chain: FPVCVEVPSETEAVQGNPMKLRCISCMKREEVEATTVVEWFYRPEGGKDFLIYEYRNGHQEVESPFQGRLQWNGSKDLQDVSITVLNVTLNDSGLYTCNVSREFEFEAHRPFVKTTRLIPLRVTEEAGEDFTSVVSEIMMYILLVFLTLWLLIEMIYCYRKVSKAEEAAQENASDYLAIPSENKENSAVPVEE
notes: Untagged full-length human sodium channel auxiliary β3-subunit, cloned into a pRK vector behind a CMV promoter; The full-length cDNA was expressed; also called NaVβ3; source: Expi293 cells, co-transfected with NaX, co-purified with tagged NaX
For B1, the binding result is “binds”.

The record behind these values is PMC8931054, “Structure-guided unlocking of NaX reveals a non-selective tetrodotoxin-sensitive cation channel” (Nature Communications, 2022).
